Test results as given in US20250042970A1 (AURINIA PHARMACEUTICALS, published 2025).
Like-named read-outs stand apart in the source and are kept apart here.

What was measured:
Assay in all cases: BIACORE SPR
[1] = molecular target: T1, Variant BAv8-10-Ig (human, UniProt P01859-1 99-326 = IgG part)
T1 construct: domain: Fc; also called Variant 8-10-Ig; BAv8-10-PIg18
Experimental: (§1) For human BAFF, cynomolgus monkey APRIL, and mouse APRIL measurements, mouse monoclonal antibody (IgG1) anti-FLAG M2 (Sigma Aldrich, Cat. No. F1804) was immobilized on CM3 sensor chips (GE Healthcare, Cat. No. BR-1005-41) according to the manufacturer's protocol. Antibody was diluted to 30 μg/ml in immobilization buffer (10 mM pH 5±0.20; GE Healthcare; GE Healthcare, Catalog No. BR-1003-51). […] Unreacted sites were quenched with 35 μl of 1M ethanolamine-HCl, pH 8.5 (GE Healthcare, GE Healthcare, Cat. No. BR-1000-50). This procedure typically yielded 3,000-4,000 response units (RU) of coupled antibody.
(§2) The fusion polypeptides were diluted in HBS-EP buffer and flowed over ligand-coated sensor chips. The variant BCMA-Ig and surrogate control fusion proteins were injected at three concentrations (1.5 nM, 15 nM, and 150 nM at 30 μl/min for 2 minutes per association phase) in a single binding cycle, followed by a 20 minute incubation with HBS-EP buffer containing no protein at the same flow rate. A similar protocol was followed for Z-TACI-Ig, except that the injections were at 4.5 nM, 45 nM, and 450 nM.
Using available information from the structures and published literature, several residues in BAv8-10 were targeted for substitution with conserved as well as non-conserved residues and their effect on BAFF and APRIL binding was assessed by BIACORE.

[2] = molecular target: T2, Variant BAv1-12-Ig (human, UniProt P01859-1 99-326 = IgG part)
T2 construct: domain: Fc; also called Variant 1-12-Ig
Excerpt: as §1, with “The standard kinetic assay measures binding kinetics of trimeric ligand (e.g., human BAFF, cynomolgus monkey APRIL, mouse BAFF, or mouse APRIL) coated on sensor chips and dimeric analytes (e.g., variant BCMA-Ig fusion proteins) in the mobile phase. […] For” for “For”
as §2
(§3) The analyses described above were performed on protein preparations of representative variant BCMA ECD-Ig fusion polypeptides, as well as the Z-TACI-Ig and [S40G]huBCMA ECD-Ig control fusion polypeptides, and the data is presented in Table 1.

[3] = molecular target: T3, Variant 50238475-Ig (human, UniProt P01859-1 99-326 = IgG part)
T3 construct: domain: Fc; also called Parent 9; Variant 50238475-PIg18
Excerpt: as §1, with “The standard kinetic assay measures binding kinetics of trimeric ligand (e.g., human BAFF, cynomolgus monkey APRIL, mouse BAFF, or mouse APRIL) coated on sensor chips and dimeric analytes (e.g., variant BCMA-Ig fusion proteins) in the mobile phase. […] For” for “For”
as §2, §3

[4] = molecular target: T4, Variant BAv8-9-Ig (human, UniProt P01859-1 99-326 = IgG part)
T4 construct: domain: Fc; also called Variant 8-9-Ig; BAv8-9-PIg18
Excerpt: as §1, with “The standard kinetic assay measures binding kinetics of trimeric ligand (e.g., human BAFF, cynomolgus monkey APRIL, mouse BAFF, or mouse APRIL) coated on sensor chips and dimeric analytes (e.g., variant BCMA-Ig fusion proteins) in the mobile phase. […] For” for “For”
as §2, §3

[5] = molecular target: T5, Variant BAv3-10-Ig (human, UniProt P01859-1 99-326 = IgG part)
T5 construct: domain: Fc; also called Variant 3-10-Ig; BAv3-10-PIg18
Excerpt: as §1, with “The standard kinetic assay measures binding kinetics of trimeric ligand (e.g., human BAFF, cynomolgus monkey APRIL, mouse BAFF, or mouse APRIL) coated on sensor chips and dimeric analytes (e.g., variant BCMA-Ig fusion proteins) in the mobile phase. […] For” for “For”
as §2, §3

[6] = molecular target: T6, Variant BAv9-5-Ig (human, UniProt P01859-1 99-326 = IgG part)
T6 construct: domain: Fc; also called Variant 9-5-Ig; BAv9-5-PIg18
Excerpt: as §1, with “The standard kinetic assay measures binding kinetics of trimeric ligand (e.g., human BAFF, cynomolgus monkey APRIL, mouse BAFF, or mouse APRIL) coated on sensor chips and dimeric analytes (e.g., variant BCMA-Ig fusion proteins) in the mobile phase. […] For” for “For”
as §2, §3

[7] = molecular target: T7, Variant BAv9-1-Ig (human, UniProt P01859-1 99-326 = IgG part)
T7 construct: domain: Fc; also called Variant 9-1-Ig; BAv9-1-pIg18
Excerpt: as §1, with “The standard kinetic assay measures binding kinetics of trimeric ligand (e.g., human BAFF, cynomolgus monkey APRIL, mouse BAFF, or mouse APRIL) coated on sensor chips and dimeric analytes (e.g., variant BCMA-Ig fusion proteins) in the mobile phase. […] For” for “For”
as §2, §3

[8] = molecular target: T8, Variant BAv11-6-Ig (human, UniProt P01859-1 99-326 = IgG part)
T8 construct: domain: Fc; also called Variant 11-6-Ig; BAv11-6-PIg18
Excerpt: as §1, with “The standard kinetic assay measures binding kinetics of trimeric ligand (e.g., human BAFF, cynomolgus monkey APRIL, mouse BAFF, or mouse APRIL) coated on sensor chips and dimeric analytes (e.g., variant BCMA-Ig fusion proteins) in the mobile phase. […] For” for “For”
as §2, §3

[9] = molecular target: T9, BAv66-Ig (human, UniProt P01859-1 99-326 = IgG part)
T9 construct: domain: Fc; also called Variant BAv66-Ig
Excerpt: as §1, with “The standard kinetic assay measures binding kinetics of trimeric ligand (e.g., human BAFF, cynomolgus monkey APRIL, mouse BAFF, or mouse APRIL) coated on sensor chips and dimeric analytes (e.g., variant BCMA-Ig fusion proteins) in the mobile phase. […] For” for “For”
as §2, §3

[10] = molecular target: T1, Variant BAv8-10-Ig; remark: listed apart in the source
Excerpt: as §1, with “The standard kinetic assay measures binding kinetics of trimeric ligand (e.g., human BAFF, cynomolgus monkey APRIL, mouse BAFF, or mouse APRIL) coated on sensor chips and dimeric analytes (e.g., variant BCMA-Ig fusion proteins) in the mobile phase. […] For” for “For”
as §2, §3

[11] = molecular target: T10, Variant 50239978-Ig (human, UniProt P01859-1 99-326 = IgG part)
T10 construct: domain: Fc; also called Parent 12

[12] = molecular target: T11, Variant 50237854-Ig (human, UniProt P01859-1 99-326 = IgG part)
T11 construct: domain: Fc; also called Parent 4

[13] = molecular target: T3, Variant 50238475-Ig; remark: listed apart in the source
[14] = molecular target: T12, Variant 50238779-Ig (human, UniProt P01859-1 99-326 = IgG part)
T12 construct: domain: Fc; also called Parent 1

[15] = molecular target: T13, Variant 50237844-Ig (human, UniProt P01859-1 99-326 = IgG part)
T13 construct: domain: Fc; also called Parent 7

[16] = molecular target: T14, Variant 50238504R-Ig (human, UniProt P01859-1 99-326 = IgG part)
T14 construct: domain: Fc; also called Parent 8

[17] = molecular target: T15, Variant 50238494-Ig (human, UniProt P01859-1 99-326 = IgG part)
T15 construct: domain: Fc; also called Parent 11

[18] = molecular target: T16, Variant 50234224-Ig (human, UniProt P01859-1 99-326 = IgG part)
T16 construct: domain: Fc; also called Parent 6

[19] = molecular target: T17, Variant 50239698-Ig (human, UniProt P01859-1 99-326 = IgG part)
T17 construct: domain: Fc; also called Parent 5

[20] = molecular target: T18, Variant 50240054-Ig (human, UniProt P01859-1 99-326 = IgG part)
T18 construct: domain: Fc; also called Parent 2

[21] = molecular target: T19, Variant 50237847-Ig (human, UniProt P01859-1 99-326 = IgG part)
T19 construct: domain: Fc; also called Parent 3

[22] = molecular target: T20, Variant 50239040-Ig (human, UniProt P01859-1 99-326 = IgG part)
T20 construct: domain: Fc; also called Parent 10
T20 sequence (P01859 other isoform, or with tags, fused parts or gaps mutant limits assumed): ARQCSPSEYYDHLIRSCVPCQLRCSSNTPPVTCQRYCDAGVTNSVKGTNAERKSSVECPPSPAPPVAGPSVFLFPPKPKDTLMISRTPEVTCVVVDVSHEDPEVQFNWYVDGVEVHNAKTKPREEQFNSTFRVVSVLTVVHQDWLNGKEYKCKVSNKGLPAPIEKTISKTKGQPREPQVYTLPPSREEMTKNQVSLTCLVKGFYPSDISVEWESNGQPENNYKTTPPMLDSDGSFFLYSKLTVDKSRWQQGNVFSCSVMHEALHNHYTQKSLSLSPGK

T1 sequence (P01859 other isoform, or with tags, fused parts or gaps mutant limits assumed): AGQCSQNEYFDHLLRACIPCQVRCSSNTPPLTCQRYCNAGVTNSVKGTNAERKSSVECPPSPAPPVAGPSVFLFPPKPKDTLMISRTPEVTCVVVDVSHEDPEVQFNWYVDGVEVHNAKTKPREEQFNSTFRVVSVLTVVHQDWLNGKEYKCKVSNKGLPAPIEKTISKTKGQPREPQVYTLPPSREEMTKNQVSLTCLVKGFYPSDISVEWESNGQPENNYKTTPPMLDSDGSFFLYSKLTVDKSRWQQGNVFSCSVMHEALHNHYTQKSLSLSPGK
T3 sequence (P01859 other isoform, or with tags, fused parts or gaps mutant limits assumed): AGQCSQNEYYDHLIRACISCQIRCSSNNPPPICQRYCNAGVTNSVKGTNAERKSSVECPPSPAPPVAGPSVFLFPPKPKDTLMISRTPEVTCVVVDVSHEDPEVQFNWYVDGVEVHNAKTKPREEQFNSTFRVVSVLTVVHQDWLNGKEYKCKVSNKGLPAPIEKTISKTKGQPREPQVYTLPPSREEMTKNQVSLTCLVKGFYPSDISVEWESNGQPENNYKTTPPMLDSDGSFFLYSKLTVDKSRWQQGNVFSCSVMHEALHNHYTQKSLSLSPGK
T15 sequence (P01859 other isoform, or with tags, fused parts or gaps mutant limits assumed): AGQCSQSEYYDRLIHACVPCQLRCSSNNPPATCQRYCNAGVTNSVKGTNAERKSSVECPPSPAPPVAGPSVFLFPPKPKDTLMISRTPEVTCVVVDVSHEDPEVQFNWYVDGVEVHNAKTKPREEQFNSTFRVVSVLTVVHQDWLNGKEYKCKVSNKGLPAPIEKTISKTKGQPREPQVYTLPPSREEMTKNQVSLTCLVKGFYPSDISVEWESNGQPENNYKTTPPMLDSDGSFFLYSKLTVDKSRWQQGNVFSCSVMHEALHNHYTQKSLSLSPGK
T9 sequence (P01859 other isoform, or with tags, fused parts or gaps limits assumed): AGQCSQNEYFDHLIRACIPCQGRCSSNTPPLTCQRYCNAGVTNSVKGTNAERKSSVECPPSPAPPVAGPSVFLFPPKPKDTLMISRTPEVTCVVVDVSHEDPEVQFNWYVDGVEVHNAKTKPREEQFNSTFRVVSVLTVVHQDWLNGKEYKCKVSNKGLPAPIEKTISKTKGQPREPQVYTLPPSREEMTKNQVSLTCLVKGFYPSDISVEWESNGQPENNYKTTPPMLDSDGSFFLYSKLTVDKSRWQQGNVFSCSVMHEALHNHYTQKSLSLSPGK
T12 sequence (P01859 other isoform, or with tags, fused parts or gaps mutant limits assumed): as the sequence (P01859 other isoform, or with tags, fused parts or gaps limits assumed) above, with G2Q, H12R, I14V, R15N, A16S, I18V, Q21R, G22L, T28N, R35H counted along it
T2 sequence (P01859 other isoform, or with tags, fused parts or gaps mutant limits assumed): as the sequence (P01859 other isoform, or with tags, fused parts or gaps limits assumed) above, with H12R, I14V, R15N, G22L counted along it
T11 sequence (P01859 other isoform, or with tags, fused parts or gaps mutant limits assumed): as the sequence (P01859 other isoform, or with tags, fused parts or gaps limits assumed) above, with Q21D, G22V, T28N, L31V counted along it
T13 sequence (P01859 other isoform, or with tags, fused parts or gaps mutant limits assumed): as the sequence (P01859 other isoform, or with tags, fused parts or gaps limits assumed) above, with N7S, F10Y, H12R, G22L, T28N, L31V, T32I counted along it
T7 sequence (P01859 other isoform, or with tags, fused parts or gaps mutant limits assumed): as the sequence (P01859 other isoform, or with tags, fused parts or gaps limits assumed) above, with G22L counted along it
T10 sequence (P01859 other isoform, or with tags, fused parts or gaps mutant limits assumed): as the sequence (P01859 other isoform, or with tags, fused parts or gaps limits assumed) above, with G2R, Q6P, F10Y, H12S, I18V, G22L, T28N, L31V counted along it
T6 sequence (P01859 other isoform, or with tags, fused parts or gaps mutant limits assumed): as the sequence (P01859 other isoform, or with tags, fused parts or gaps limits assumed) above, with H12R, I14V, G22L counted along it
T17 sequence (P01859 other isoform, or with tags, fused parts or gaps mutant limits assumed): as the sequence (P01859 other isoform, or with tags, fused parts or gaps limits assumed) above, with G2R, F10Y, H12R, I14L, A16S, I18V, Q21H, G22V, T28N, L31V counted along it
T4 sequence (P01859 other isoform, or with tags, fused parts or gaps mutant limits assumed): as the sequence (P01859 other isoform, or with tags, fused parts or gaps limits assumed) above, with I14L, G22L counted along it
T16 sequence (P01859 other isoform, or with tags, fused parts or gaps mutant limits assumed): as the sequence (P01859 other isoform, or with tags, fused parts or gaps limits assumed) above, with E8D, F10Y, I14L, G22L, T28N counted along it
T18 sequence (P01859 other isoform, or with tags, fused parts or gaps mutant limits assumed): as the sequence (P01859 other isoform, or with tags, fused parts or gaps limits assumed) above, with G2Q, Q6P, H12R, G22L, L31V, A39T counted along it
T19 sequence (P01859 other isoform, or with tags, fused parts or gaps mutant limits assumed): as the sequence (P01859 other isoform, or with tags, fused parts or gaps limits assumed) above, with F10Y, I14L, I18V, P19S, Q21H, G22V, T28N, L31A, T32I counted along it
T5 sequence (P01859 other isoform, or with tags, fused parts or gaps mutant limits assumed): as the sequence (P01859 other isoform, or with tags, fused parts or gaps limits assumed) above, with H12R, G22L counted along it
T14 sequence (P01859 other isoform, or with tags, fused parts or gaps mutant limits assumed): as the sequence (P01859 other isoform, or with tags, fused parts or gaps limits assumed) above, with F10Y, H12R, I18L, Q21H, G22V, L31A counted along it
T8 sequence (P01859 other isoform, or with tags, fused parts or gaps mutant limits assumed): as the sequence (P01859 other isoform, or with tags, fused parts or gaps limits assumed) above, with H12R, I14L, G22V counted along it

Kd [1]: 0.076 nM
Kd [2]: 0.0101 nM
Kd [3]: 0.0789 nM
Kd [4]: 0.0226 nM
Kd [5]: 0.0139 nM
Kd [6]: 0.0284 nM
Kd [7]: 0.0214 nM
Kd [8]: 0.0244 nM
Kd [9]: 62.6 nM
Kd [10]: 0.0539 nM
Kd [11]: 0.024 nM
Kd [12]: 0.059 nM
Kd [13]: 0.042 nM
Kd [14]: 0.028 nM
Kd [15]: 0.028 nM
Kd [16]: 0.072 nM
Kd [17]: 0.012 nM
Kd [18]: 0.039 nM
Kd [19]: 0.017 nM
Kd [20]: 0.023 nM
Kd [21]: 0.037 nM
Kd [22]: 0.054 nM
B1: FLAG-tagged cynomolgous APRIL (ligand, not shown: small tags and cut ends)
chain: KQKKQHSVLHLVPINATSKDDSDVTEVMWQPALRRGRGLQAQGYGVRIRDAGVYLLYSQVLFQDVTFTMGQVVSREGQGKQETLFRCIRSMPSHPDRAYNSCYSAGVFHLHQGDILSVIIPRARAKLNLSPHGTFLGFVKL
notes: FLAG-tagged, expressed with TPA signal peptide; also called cyAPRIL
